18 molecules from patent publication US20180155451A1 (published 2018) can be followed below.

In experiment [1] the target is T1, FcγRIa extracellular domain with C-terminal His tag (human, UniProt P12314 16-292).
T1 construct: extracellular domain; soluble receptor expressed in FreeStyle293 cells, used as analyte in Biacore; also called FcgRI; 1a; not shown: His tag attached to the C terminus
In words: SPR (Biacore), antibody captured on antigen peptide chip, FcγR as analyte; relative binding. A general note: SPR reads the build-up and loss of mass on a sensor chip optically.

Experiment [2] addresses T2, FcγRIIb extracellular domain with C-terminal His tag (human, UniProt P31994 43-217).
T2 construct: extracellular domain; soluble receptor expressed in FreeStyle293 cells, used as analyte in Biacore; also called FcgRIIb; 2b; not shown: His tag attached to the C terminus
T2 sequence (looked up): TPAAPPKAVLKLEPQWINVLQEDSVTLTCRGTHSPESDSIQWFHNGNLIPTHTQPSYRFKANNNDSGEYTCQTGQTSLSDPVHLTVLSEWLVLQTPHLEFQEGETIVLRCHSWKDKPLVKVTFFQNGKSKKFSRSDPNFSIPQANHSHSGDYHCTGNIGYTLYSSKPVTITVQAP
The experiment is described as above.

Experiment [3] addresses T3, FcγRIIa H (human, UniProt P12318 34-217).
T3 construct: extracellular domain; also called FcγRIIa type H; 2aH
T3 sequence (looked up): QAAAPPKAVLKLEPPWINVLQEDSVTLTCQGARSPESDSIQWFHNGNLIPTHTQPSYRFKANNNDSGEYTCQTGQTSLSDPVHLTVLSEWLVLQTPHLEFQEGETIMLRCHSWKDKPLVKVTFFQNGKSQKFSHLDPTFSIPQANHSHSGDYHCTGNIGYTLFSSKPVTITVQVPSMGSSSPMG
In words: SPR (Biacore), relative binding vs GpH7-A5/GpH7-B3/GpL16-k0. As to the method: (§1) The heterodimerized antibodies He Abs in which one of the H chains was introduced with an alteration were assayed for their binding activities to each activating FcγR and inhibitory FcγR according to the method described in Example 4. […] The activating FcγRs in FIGS. 26, 27, 28, and 29 are FcγRIa, FcγRIIa (R), FcγRIIa (H), and FcγRIIIa, respectively.
(§2) Analysis of interaction between objective antibody and the FcγR was carried out using Biacore T100 (GE Healthcare). HBS-EP+ (GE Healthcare) was used as the running buffer, and the measurement temperature was set to 25° C. Chips produced by immobilizing the antigen peptide by the amine coupling method to a Series S Sencor Chip CM5 (GE Healthcare), or alternatively, chips produced by allowing preliminarily biotinylated antigen peptides to interact with and immobilize onto a Series S Sensor Chip SA (certified) (GE Healthcare) were used. Antibodies of interest were captured onto an antigen peptide-immobilized chip, and allowed to interact to each FcγR diluted with running buffer. To regenerate and repeatedly use the chip, the antibodies captured on the chip were washed off by reacting 10 mM glycine-HCl, pH 1.5.

Experiment [4] concerns the target T4, FcγRIIb (human, UniProt P31994 43-217).
T4 construct: extracellular domain; also called 2b
T4 sequence (looked up): T2 sequence (looked up)
The experiment is described as above. As to the method:
as §1, §2

T1 sequence (P12314 16-292): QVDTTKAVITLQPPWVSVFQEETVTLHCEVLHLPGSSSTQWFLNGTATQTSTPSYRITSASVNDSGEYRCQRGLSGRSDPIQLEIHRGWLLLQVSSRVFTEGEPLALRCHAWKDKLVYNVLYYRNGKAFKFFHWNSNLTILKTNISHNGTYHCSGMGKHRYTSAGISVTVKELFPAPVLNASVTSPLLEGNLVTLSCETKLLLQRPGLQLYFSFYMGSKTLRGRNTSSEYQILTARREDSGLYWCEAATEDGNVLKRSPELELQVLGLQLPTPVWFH

B1: GpH7-A5/GpH7-B3 variant P271_15Y/GpL16-k0 (antibody, human IgG1, kappa)
heavy 1: not shown
heavy 2: not shown
light: DIVMTQSPLSLPVTPGEPASISCQASESLVHSNRNTYLHWYLQKPGQSPQLLIYKVSNRFSGVPDRFSGSGSGTDFTLKISRVEAEDVGVYYCSQNTHVPPTFGQGTKVEIERTVAAPSVFIFPPSDEQLKSGTASVVCLLNNFYPREAKVQWKVDNALQSGNSQESVTEQDSKDSTYSLSSTLTLSKADYEKHKVYACEVTHQGLSSPVTKSFNRGEC
notes: heterodimerized anti-glypican-3 IgG1; alteration in the GpH7-B3 chain only; also called He Ab
Consider B1, for which the He/Con_1a in experiment [1] was 103 % of control GpH7-A5/GpH7-B3/GpL16-k0 (=100). The He/Con_2b in experiment [2] was 52.3 % of control GpH7-A5/GpH7-B3/GpL16-k0 (=100).

B2: GpH7-A5/GpH7-B3 variant Q295_15Y/GpL16-k0 (antibody, human IgG1, kappa)
heavy 1: not shown
heavy 2: not shown
light: B1 light
notes: as for B1
On to B2, for which the He/Con_1a in experiment [1] was 102 % of control GpH7-A5/GpH7-B3/GpL16-k0 (=100). The He/Con_2b in experiment [2] is 65.4 % of control GpH7-A5/GpH7-B3/GpL16-k0 (=100).

B3: GpH7-A5/GpH7-B3 variant S324_12R/GpL16-k0 (antibody, human IgG1, kappa)
heavy 1: not shown
heavy 2: not shown
light: B1 light
notes: as for B1
As for B3, the He/Con_1a in experiment [1] was 102 % of control GpH7-A5/GpH7-B3/GpL16-k0 (=100). The He/Con_2b in experiment [2] was 63.1 % of control GpH7-A5/GpH7-B3/GpL16-k0 (=100).

B4: GpH7-A5/GpH7-B3 variant Q295_02A/GpL16-k0 (antibody, human IgG1, kappa)
heavy 1: not shown
heavy 2: not shown
light: B1 light
notes: as for B1
B4: in experiment [1], the He/Con_1a is 104 % of control GpH7-A5/GpH7-B3/GpL16-k0 (=100). Further, in experiment [2], the He/Con_2b is 79.7 % of control GpH7-A5/GpH7-B3/GpL16-k0 (=100).

B5: GpH7-A5/GpH7-B3 variant P329_02A/GpL16-k0 (antibody, human IgG1, kappa)
heavy 1: not shown
heavy 2: not shown
light: B1 light
notes: as for B1
On to B5, for which, in experiment [1], the He/Con_1a was 102 % of control GpH7-A5/GpH7-B3/GpL16-k0 (=100). For the same molecule, the He/Con_2b in experiment [2] was 40.5 % of control GpH7-A5/GpH7-B3/GpL16-k0 (=100).

B6: GpH7-A5/GpH7-B3 variant P271_16H/GpL16-k0 (antibody, human IgG1, kappa)
heavy 1: not shown
heavy 2: not shown
light: B1 light
notes: as for B1
On to B6, for which, in experiment [1], the He/Con_1a is 102 % of control GpH7-A5/GpH7-B3/GpL16-k0 (=100). Besides, in experiment [2], the He/Con_2b was 67.9 % of control GpH7-A5/GpH7-B3/GpL16-k0 (=100).

B7: GpH7-A5/GpH7-B3 variant Q295_13S/GpL16-k0 (antibody, human IgG1, kappa)
heavy 1: not shown
heavy 2: not shown
light: B1 light
notes: as for B1
Regarding B7, the He/Con_1a in experiment [1] was 102 % of control GpH7-A5/GpH7-B3/GpL16-k0 (=100). Besides, the He/Con_2b in experiment [2] is 56.9 % of control GpH7-A5/GpH7-B3/GpL16-k0 (=100).

B8: GpH7-A5/GpH7-B3 variant S324_09D/GpL16-k0 (antibody, human IgG1, kappa)
heavy 1: not shown
heavy 2: not shown
light: B1 light
notes: as for B1
Take B8: the He/Con_1a in experiment [1] is 104 % of control GpH7-A5/GpH7-B3/GpL16-k0 (=100). For the same molecule, in experiment [2], the He/Con_2b is 85.8 % of control GpH7-A5/GpH7-B3/GpL16-k0 (=100).

B9: GpH7-A5/GpH7-B3 variant Q295_01G/GpL16-k0 (antibody, human IgG1, kappa)
heavy 1: not shown
heavy 2: not shown
light: B1 light
notes: as for B1
Consider B9, for which the He/Con_1a in experiment [1] is 97.6 % of control GpH7-A5/GpH7-B3/GpL16-k0 (=100). In experiment [2], the He/Con_2b was 46 % of control GpH7-A5/GpH7-B3/GpL16-k0 (=100).

B10: GpH7-A5/GpH7-B3 variant A327_01G/GpL16-k0 (antibody, human IgG1, kappa)
heavy 1: not shown
heavy 2: not shown
light: B1 light
notes: heterodimerized IgG1, mutation in one H chain only; also called He Ab
Consider B10, for which the He/Con_2aH in experiment [3] is 97.2 % of control He Ab (=100). Besides, the He/Con_2b in experiment [4] is 116 % of control He Ab (=100).

B11: GpH7-A5/GpH7-B3 variant A327_10E/GpL16-k0 (antibody, human IgG1, kappa)
heavy 1: not shown
heavy 2: not shown
light: B1 light
notes: as for B10
In the case of B11, in experiment [3], the He/Con_2aH is 91.3 % of control He Ab (=100). For the same molecule, the He/Con_2b in experiment [4] is 140 % of control He Ab (=100).

B12: GpH7-A5/GpH7-B3 variant Q295_14T/GpL16-k0 (antibody, human IgG1, kappa)
heavy 1: not shown
heavy 2: not shown
light: B1 light
notes: as for B1
Consider B12, for which the He/Con_1a in experiment [1] was 103 % of control GpH7-A5/GpH7-B3/GpL16-k0 (=100). In experiment [2], the He/Con_2b was 66.8 % of control GpH7-A5/GpH7-B3/GpL16-k0 (=100).

B13: GpH7-A5/GpH7-B3 variant A327_07I/GpL16-k0 (antibody, human IgG1, kappa)
heavy 1: not shown
heavy 2: not shown
light: B1 light
notes: as for B10
As to B13, in experiment [3], the He/Con_2aH is 58.4 % of control He Ab (=100). In addition, the He/Con_2b in experiment [4] was 127 % of control He Ab (=100).

B14: GpH7-A5/GpH7-B3 variant S324_10E/GpL16-k0 (antibody, human IgG1, kappa)
heavy 1: not shown
heavy 2: not shown
light: B1 light
notes: as for B1
For the molecule B14, in experiment [1], the He/Con_1a was 105 % of control GpH7-A5/GpH7-B3/GpL16-k0 (=100). Further, the He/Con_2b in experiment [2] is 77.4 % of control GpH7-A5/GpH7-B3/GpL16-k0 (=100).

B15: GpH7-A5/GpH7-B3 variant Q295_09D/GpL16-k0 (antibody, human IgG1, kappa)
heavy 1: not shown
heavy 2: not shown
light: B1 light
notes: as for B1
On to B15, for which the He/Con_1a in experiment [1] was 100 % of control GpH7-A5/GpH7-B3/GpL16-k0 (=100). In addition, the He/Con_2b in experiment [2] was 60.8 % of control GpH7-A5/GpH7-B3/GpL16-k0 (=100).

B16: GpH7-A5/GpH7-B3 variant S324_20W/GpL16-k0 (antibody, human IgG1, kappa)
heavy 1: not shown
heavy 2: not shown
light: B1 light
notes: as for B1
Consider B16, for which the He/Con_1a in experiment [1] is 114 % of control GpH7-A5/GpH7-B3/GpL16-k0 (=100). For the same molecule, the He/Con_2b in experiment [2] is 87.5 % of control GpH7-A5/GpH7-B3/GpL16-k0 (=100).

B17: GpH7-A5/GpH7-B3 variant S267_11K/GpL16-k0 (antibody, human IgG1, kappa)
heavy 1: not shown
heavy 2: not shown
light: B1 light
notes: as for B10
Regarding B17, in experiment [4], the He/Con_2b was 12.2 % of control He Ab (=100).

B18: GpH7-A5/GpH7-B3 variant A330_05P/GpL16-k0 (antibody, human IgG1, kappa)
heavy 1: not shown
heavy 2: not shown
light: B1 light
notes: as for B10
As to B18, the He/Con_2aH in experiment [3] is 85.7 % of control He Ab (=100). The He/Con_2b in experiment [4] is 137 % of control He Ab (=100).
